Patent US20210340208A1 (ANWITA BIOSCIENCES, published 2021)
Changes are numbered by the printed parent chain. In names and notes the source's numbering stands. Blank lines part the entries; values can stand above or below the binder they belong to.

Tests used:
[1] = biological target: T1, IL-2Rα-Fc fusion protein (human, UniProt P01589 22-240); assay: BLI (Octet RED96), IL-2Rα-Fc on AHC biosensor
T1 construct: also called human IL-2Rα (CD25); CD25; not shown: Fc part and any linker are not described; captured on an anti-human IgG Fc sensor
T1 sequence: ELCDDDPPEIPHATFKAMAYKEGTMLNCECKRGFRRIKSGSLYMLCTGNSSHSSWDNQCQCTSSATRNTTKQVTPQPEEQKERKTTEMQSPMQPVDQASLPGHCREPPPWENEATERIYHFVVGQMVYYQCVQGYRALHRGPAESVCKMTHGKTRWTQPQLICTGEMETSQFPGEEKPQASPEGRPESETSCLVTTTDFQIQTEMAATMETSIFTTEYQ
Protocol: (§1) OCTET® RED96 was used to characterize the interactions of a wild-type hIL-2 and hIL-2 muteins with a human IL-2Rα (CD25). Briefly, an IL-2Rα-Fc fusion protein was loaded onto an anti-human IgG Fc capture (AHC) biosensor. The biosensor was then dipped into a solution containing a wild-type hIL-2 (WT IL-2) or an IL-2 mutein at various concentrations. Primary experimental data was analyzed with global fitting to determine a binding affinity (Kd).

[2] = biological target: T2, human CD122-Fc (AbroBio) (human, UniProt P14784 27-239); assay: BLI (Octet RED96), CD122-Fc on AHC sensor, 400 nM hIL-2 polypeptide
T2 construct: also called IL-2Rβ; not shown: Fc part and any linker of the bought protein are not described; captured on an anti-human Fc sensor
T2 sequence: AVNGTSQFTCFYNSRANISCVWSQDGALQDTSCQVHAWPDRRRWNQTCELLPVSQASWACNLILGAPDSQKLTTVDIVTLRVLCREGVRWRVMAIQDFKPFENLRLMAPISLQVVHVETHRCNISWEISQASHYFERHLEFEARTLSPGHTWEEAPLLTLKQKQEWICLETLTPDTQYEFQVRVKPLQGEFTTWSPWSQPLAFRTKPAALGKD
Protocol: OCTET® RED96 was used to characterize the interactions of a human CD122-Fc (AbroBio) with a wild-type hIL-2 and hIL-2 muteins. Briefly, an anti-human Fc sensor (AHC) loaded with the human CD122 was dip into 400 nM of an hIL-2 polypeptide. The binding signaling of fusion protein A1 was normalized to 1.

[3] = biological target: T1, IL-2Rα-Fc fusion protein; assay: BLI (Octet RED96), IL-2Rα-Fc on AHC biosensor, global fit
Protocol: as §1

binding result [1]: no binding
B3: hIL-2-anti-HSA A55 (ligand)
chain: APTSSSTKKTQLQLEHLLLDLQMILNGIQSMEIDATTFKFYMPKKATELKHLQCLEEELKPLEEVLNLAQSKNFHLRPRDLISNINVIVLELKGSETTFMCEYADETATIVEFLNRWITFSQSIISTLTGSGGSGGSGGSGEVQLVESGGGLVQPGGSLRLSCAASGSTWSINTLAWYRQAPGKQRDLVARISSGGSTYYADSVKGRFTISRDNSKNTLYLQMNSLRAEDTAVYYCYAQSTWYPPSWGQGTLVTVSS
notes: fused to anti-HSA VHH; also called IL-2-IL-15 chimera 2

CD122 Binding Response (A1 normalized to 1) [2]: 0.68
binding result [1]: no binding
B4: hIL-2-anti-HSA A2 (ligand)
chain: APTSSSTKKTQLQLEHLLLDLQMILNGINNYKNPKLTNMTTFKFYMPKKATELKHLQCLEEELKPLEEVLNLAQSKNFHLRPRDLISNINVIVLELKGSETTFMCEYADETATIVEFLNRWITFSQSIISTLTGSGGSGGSGGSGEVQLVESGGGLVQPGGSLRLSCAASGSTWSINTLAWYRQAPGKQRDLVARISSGGSTYYADSVKGRFTISRDNSKNTLYLQMNSLRAEDTAVYYCYAQSTWYPPSWGQGTLVTVSS
modifications: glycosylated IL-2 (site and glycan not stated for the tested protein)
notes: fused to anti-HSA VHH; also called hIL-2 mutein (R38N, L40T, C125S); glycosylated IL-2

CD122 Binding Response (A1 normalized to 1) [2]: 0.22
B6: hIL-2-anti-HSA A64 (ligand)
chain: B4 chain with T3A, F42A, E95N
notes: fused to anti-HSA VHH; also called hIL-2 mutein (T3A, R38N, L40T, F42A, E95N, C125S)

CD122 Binding Response (A1 normalized to 1) [2]: 0.55
B8: hIL-2-anti-HSA A59 (ligand)
chain: B4 chain with T3A, Q13E, F42A
notes: fused to anti-HSA VHH; also called hIL-2 mutein (T3A, Q13E, R38N, L40T, F42A, C125S)

CD122 Binding Response (A1 normalized to 1) [2]: 0.29
B9: hIL-2-anti-HSA A62 (ligand)
chain: B4 chain with T3A, M23K, F42A
notes: fused to anti-HSA VHH; also called hIL-2 mutein (T3A, M23K, R38N, L40T, F42A, C125S)

CD122 Binding Response (A1 normalized to 1) [2]: 0.5
B12: hIL-2-anti-HSA A65 (ligand)
chain: B4 chain with Q13N, K32E, N38R, T40L, F42C, V69C
notes: fused to anti-HSA VHH; also called hIL-2 mutein (Q13N, K32E, F42C, V69C, C125S)

binding result [1]: no binding
B13: hIL-2-anti-HSA A52 (ligand)
chain: B4 chain with N38R, T40L, F42C, V69C
notes: fused to anti-HSA VHH; also called hIL-2 mutein (F42C, V69C, C125S)

CD122 Binding Response (A1 normalized to 1) [2]: 0.3
B19: hIL-2-anti-HSA A67 (ligand)
chain: B4 chain with K32E, N38R, T40L, F42C, V69C, D84T
notes: fused to anti-HSA VHH; also called hIL-2 mutein (K32E, F42C, V69C, D84T, C125S)

CD122 Binding Response (A1 normalized to 1) [2]: 1.31
B21: hIL-2-anti-HSA A70 (ligand)
chain: B4 chain with K32E, N38R, T40L, F42C, V69C, V91I, I92L
notes: fused to anti-HSA VHH; also called hIL-2 mutein (K32E, F42C, V69C, V91I, I92L, C125S)

CD122 Binding Response (A1 normalized to 1) [2]: 0.39
B23: hIL-2-anti-HSA A72 (ligand)
chain: B4 chain with K32E, N38R, T40L, F42C, V69C, E95N
notes: fused to anti-HSA VHH; also called hIL-2 mutein (K32E, F42C, V69C, E95N, C125S)

binding result [1]: no binding
B24: hIL-2-anti-HSA A44 (ligand)
chain: B4 chain with K32E, N38A, T40L, F42K
notes: fused to anti-HSA VHH; also called IL2 mutein (K32E, R38A, F42K, C125S)

CD122 Binding Response (A1 normalized to 1) [2]: 1.93
B25: hIL-2-anti-HSA A69 (ligand)
chain: B4 chain with K32E, N38R, T40L, F42C, V69C, S87D
notes: fused to anti-HSA VHH; also called hIL-2 mutein (K32E, F42C, V69C, S87D, C125S)

CD122 Binding Response (A1 normalized to 1) [2]: 1.44
B26: hIL-2-anti-HSA A71 (ligand)
chain: B4 chain with K32E, N38R, T40L, F42C, V69C, I92L
notes: fused to anti-HSA VHH; also called hIL-2 mutein (K32E, F42C, V69C, I92L, C125S)

binding result [1]: no binding
B31: hIL-2-anti-HSA A42 (ligand)
chain: B4 chain with K32E, N38E, T40L, F42G
notes: fused to anti-HSA VHH; also called IL2 mutein (K32E, R38E, F42G, C125S)

binding result [1]: no binding
B33: hIL-2-anti-HSA A45 (ligand)
chain: B4 chain with K32E, N38E, T40L, F42K
notes: fused to anti-HSA VHH; also called IL2 mutein (K32E, R38E, F42K, C125S)

The next lines start with the binder.

B1: hIL-2-anti-HSA A56 (ligand)
chain: APTSSSTKKTQLQLEHLLLDLQMILNGIQSMEIDATKFYMPKKATELKHLQCLEEELKPLEEVLNLAQSKNFHLRPRDLISNINVIVLELKGSETTFMCEYADETATIVEFLNRWITFSQSIISTLTGSGGSGGSGGSGEVQLVESGGGLVQPGGSLRLSCAASGSTWSINTLAWYRQAPGKQRDLVARISSGGSTYYADSVKGRFTISRDNSKNTLYLQMNSLRAEDTAVYYCYAQSTWYPPSWGQGTLVTVSS
notes: fused to anti-HSA VHH; also called IL-2-IL-15 chimera 3
binding result [1]: no binding

B2: hIL-2-anti-HSA A54 (ligand)
chain: APTSSSTKKTQLQLEHLLLDLQMILNGINNYENPKLTDATLYMPKKATELKHLQCLEEELKPLEEVLNLAQSKNFHLRPRDLISNINVIVLELKGSETTFMCEYADETATIVEFLNRWITFSQSIISTLTGSGGSGGSGGSGEVQLVESGGGLVQPGGSLRLSCAASGSTWSINTLAWYRQAPGKQRDLVARISSGGSTYYADSVKGRFTISRDNSKNTLYLQMNSLRAEDTAVYYCYAQSTWYPPSWGQGTLVTVSS
notes: fused to anti-HSA VHH; also called IL-2-IL-15 chimera 1
binding result [1]: no binding

B5: hIL-2-anti-HSA A49 (ligand)
chain: B4 chain with K32E, N38R, T40L, F42C, V69C
notes: fused to anti-HSA VHH; also called hIL-2 mutein (K32E, F42C, V69C, C125S); IL-2 with an additional disulfide bond
CD122 Binding Response (A1 normalized to 1) [2]: 1.04
binding result [1]: no binding

B7: hIL-2-anti-HSA A48 (ligand)
chain: B4 chain with K32E, N38C, T40L, L72C
notes: fused to anti-HSA VHH; also called hIL-2 mutein (K32E, R38C, L72C, C125S)
binding result [1]: no binding

B10: hIL-2-anti-HSA A36 (ligand)
chain: B4 chain with K32E, N38A, T40L
notes: fused to anti-HSA VHH; also called IL2 mutein (K32E, R38A, C125S)
Kd [3]: 50 nM

B11: hIL-2-anti-HSA A61 (ligand)
chain: B4 chain with T3A, H16N, F42A
notes: fused to anti-HSA VHH; also called hIL-2 mutein (T3A, H16N, R38N, L40T, F42A, C125S)
CD122 Binding Response (A1 normalized to 1) [2]: 0.17

B14: hIL-2-anti-HSA A53 (ligand)
chain: B4 chain with N38R, T40L, F42C, V69C, K76E
notes: fused to anti-HSA VHH; also called hIL-2 mutein (F42C, V69C, K76E, C125S)
binding result [1]: no binding

B15: hIL-2-anti-HSA A50 (ligand)
chain: B4 chain with K32E, N38R, T40L, Y45C, E62C
notes: fused to anti-HSA VHH; also called hIL-2 mutein (K32E, Y45C, E62C, C125S)
binding result [1]: no binding

B16: hIL-2-anti-HSA A63 (ligand)
chain: B4 chain with T3A, F42A, V91I
notes: fused to anti-HSA VHH; also called hIL-2 mutein (T3A, R38N, L40T, F42A, V91I, C125S)
CD122 Binding Response (A1 normalized to 1) [2]: 0.35

B17: hIL-2-anti-HSA A73 (ligand)
chain: B4 chain with K32E, N38R, T40L, F42C, V69C, E95Q
notes: fused to anti-HSA VHH; also called hIL-2 mutein (K32E, F42C, V69C, E95Q, C125S)
CD122 Binding Response (A1 normalized to 1) [2]: 0.38

B18: hIL-2-anti-HSA A40 (ligand)
chain: B4 chain with K32E, N38G, T40L, F42A
notes: fused to anti-HSA VHH; also called IL2 mutein (K32E, R38G, F42A, C125S)
binding result [1]: no binding

B20: hIL-2-anti-HSA A60 (ligand)
chain: B4 chain with T3A, E15V, F42A
notes: fused to anti-HSA VHH; also called hIL-2 mutein (T3A, E15V, R38N, L40T, F42A, C125S)
CD122 Binding Response (A1 normalized to 1) [2]: 0.14

B22: hIL-2-anti-HSA A46 (ligand)
chain: B4 chain with K32E, N38G, T40L, F42K
notes: fused to anti-HSA VHH; also called IL2 mutein (K32E, R38G, F42K, C125S)
binding result [1]: no binding

B27: hIL-2-anti-HSA A38 (ligand)
chain: B4 chain with K32E, N38A, T40L, F42A
notes: fused to anti-HSA VHH; also called IL2 mutein (K32E, R38A, F42A, C125S)
binding result [1]: no binding

B28: hIL-2-anti-HSA A39 (ligand)
chain: B4 chain with K32E, N38E, T40L, F42A
notes: fused to anti-HSA VHH; also called IL2 mutein (K32E, R38E, F42A, C125S)
binding result [1]: no binding

B29: hIL-2-anti-HSA A66 (ligand)
chain: B4 chain with L19S, K32E, N38R, T40L, F42C, V69C
notes: fused to anti-HSA VHH; also called hIL-2 mutein (L19S, K32E, F42C, V69C, C125S)
CD122 Binding Response (A1 normalized to 1) [2]: 0.65

B30: hIL-2-anti-HSA A47 (ligand)
chain: B4 chain with K32E, K35C, N38R, T40L, L72C
notes: fused to anti-HSA VHH; also called hIL-2 mutein (K32E, K35C, L72C, C125S)
Kd [3]: > 15 nM

B32: hIL-2-anti-HSA A68 (ligand)
chain: B4 chain with K32E, N38R, T40L, F42C, V69C, S87E
notes: fused to anti-HSA VHH; also called hIL-2 mutein (K32E, F42C, V69C, S87E, C125S)
CD122 Binding Response (A1 normalized to 1) [2]: 1.72
